Test results reported in the DeepSol protein solubility set.

Assay: soluble on expression in E. coli; label from the status in PepcDB or PDB records

Sequence	soluble on expression in E. coli
MSLYLCEEHFKEYFERKVARTIEKYKLASKDERILVAVSGGKDSAVTAYVLKKLGYKIECLHLNLGIGEYSEKSEIYAKKQCEFIGAPLNIIRVKELLGYGIGEVRTSRPTCSYCGLTKRYIMNKFAYDNGFDAVATGHNLDDEASFLMNNLLHWNTEYLAKGGPLLPGEGKFVKKIKPLYELTEREVVAYAIAVGLEYIVEECPYARGATTLDMKEVLNELEEKRPGTKFNFVRGFLRKKKLFEPEVKGKDLKECKICGMPASGEICSFCKFWKLGKPLTFKIKEGHHHHHH	soluble
MSKAEFQKFHDEMKALKNAGKHDEFAKKFAAKDAVFIGPLHDPCTADEAAKLAQSDKMAALVKADFDVKIDEVTQIGDVVVERCSISAKLPTGDKNGWSLTVWVKEGGAWKIRNSCITFKAPIPQ	not soluble
MHHHHHHMMSETAEKAIEIWKIRRLVKQLINCHGNGTSMITLIIPPGEQISRYSNMLAEEYGTASNIKSRVNRLSVLSAITSTRERLKLYNKVPDNGLVIYCGEVIMEGNKTRKLNIDFEPFKPINTSQYLCDNKFHTEALAELLESDQRFGFIVMDGHQTLYGVVSGSAREVLQRFTVDLPKKHGRGGQSALRFARLRDEKRHNYVRKVAEGAVQHFITDDKPNVAGIVLAGSADFKTELGQSDLFDQRLQSRIIKTVDVSYGGDAGFNQAIELAADTLSNVKYVQEKKLIQRFFDEISLDSGKYCFGVVDTMNALQEGAVETLLCFADLDMIRYEFKNSEGNPVITYMTKEQEEKDSTNSFLLDKDTGAEMELVSSMLLSEWLAEHYKDYGANLEFVSDRSQEGMQFVKGFGGIGAVMRYQLDLSMLDPESDEFYSDSD	soluble
MSLQMYAGWRVVVDKNCIKIVSSNLAAQKLIEKQHNARLDTIAAKQQKVELYSVSMATMKELYKLSMQNISGFGTESLYYKEIGSCALDIIRNVPELIKTVSKAKFTNQLYCLTELGGLVMETQQLVGNFVNIVNNAKIPNPLKGEGTAERKSDGYNILDRYERMSLANSIYTNLNEIRYKVDGMMLMAQYATLNDLCFAINPEGWANVMTMRNQVDGLVSDWNGLVATNEGHHHHHH	soluble
MGSDKIHHHHHHMPAALPIKPPFKPRDISIVGAGVAGASLALSLLRRGHKVTLYCADAAPGIGASGNRQGAIYPLLTPEDDHLTRLFVPAFLYAKRFVESLAHHPLPFDFCGVLQTGHDERATERIEKLLSKTWPKQVAVRVDADEANHIAGVAIDKGGIYYPQGGWVSPAKLCEAAIEEAKTMGLECHFDVNITSITRADEGWRLNTQTGEIDAHELVLATGHRITELAQTKSLQLAPFRGQVSHVPTRGKLEQLKTVLCAHGYFTPRDASSGSHCMGASYVRGDTSVEYREQEQQENLHKMQESYPGKDWVEYLDISEGSARAGIRMVSRDHLPMAGAAPDVAAIQTQYQAIGHGPKGAQYWQTHAAPVHPGLYIFSGLGSRGLSSGPLIAECLADSLSGTLPVLDGDVMEALNPNRMWLRKLKKGKALD	not soluble
MGSDKIHHHHHHMARILIIRFSALGDVAMTIPVVHSLAVQYPQLEITVLSRAVWQPLFQGLPANVSFIGADLTGKHKGLWGLNTLYSELKAKHFDYVADFHHVLRTKYLCLRFRLANIPVASIYKGRVGKEKLVRRRHKVLENQKSSFRRYADVLEKLGFPVLLNFSSIYGDEKGNFAEIEPVTGAKDNLKWIGIAPFAKHMGKIYPIELQEQVVAHFAADPKVKVFLFGGGKSEQEVFDGWVAKYPTVVSMIGKLNMRTELNLMSHLDVMLSMDSANMHLASLVNIPVISVWGATHPYAGFMGWKQLPVNTVQFDLSCRPCSVYGQKPCWRGDYACLREIKPEQVIAKIEGIIN	not soluble
MKIHSYIFSLLACLVIALPGYSQVDRNETLIRSALHGLEYEIKAGFSIGGTAPLPLPVEIRSIDGYNPTLAISIGGEVTKWFAVQNKLGVIVGLRLENKAMTTEATVKNYNMEILGQGGERISGVWTGGVKTKVHTSGLTIPLMATYKLSNRWNIKAGPYFSYLLSREFSGHVYEGYLREGDPVGPKVEFTDGKIATYDFSDDLRHFQWGLQIGAGWRAFKHLNIYADLTWGLNDIFRNDFQTITFAMYPIYLNIGFGYAF	not soluble
SIPALHRLVTVNMIPDASNDNIMVMRSYQIQATREILQRMKEMEASGLVQKEGGYIWHTTGSGKTVTSFKVAQLLASAPRIKNVLFIVDRIDLIDQTLENFKSFAYAHFKNRIKKVNGRELKRELKRKGSSQILLISVQGLTKAVKKGLENDDWNVIIMDEAHRSASGESVKLIKKALKKTTWFGFTGTPN	not soluble
GPGSMMVLDIQLFRDETGANIIRESQRRRFADPDIVDAIIEADKKWRRTQFLTEASKKLINICSKAVGAKKKAKEADGDTSEIPPQVKEAYENGTLKGEQVEQLCVLQLKQLSKDLSDQVAGLAKEAQQLEEERDKLMLNVGNILHESVPIAQDEETGNTVVRTFGNTTKRAKLNHVSIMERLGMMDTSKAVTSMAGGRSYVLKGGLVQLQVALVSYSLDFLVKRGYTPFYPPFFLNRDVMGEVAQLSQFDEELYQVSGDGDKKYLIATSEMPIAAYHRGRWFTELKEPLKYAGMSTCFRKEAGAHGRDTLGIFRVHQFDKIEQFVVCSPRQEESWRHLEDMITTSEEFNKSLGLPYRVVNICSGALNNAAAKKYDLEAWFPASGAFRELVSCSNCTDYQSQSVNCRYGPNLRGTAAQNVKEYCHMLNGTLCAITRTMCCICENYQTEEGVVIPDVLRPYMMGIEMIRFENNAQAEGTTPDKGE	soluble
MKLKNTLLASALLSAMAFSVNAATELTPEQAAAVKPFDRVVVTGRFNAIGEAVKAVSRRADKEGAASFYVVDTSDFGNSGNWRVVADLYKADAEKAEETSNRVINGVVELPKDQAVLIEPFDTVTVQGFYRSQPEVNDAITKAAKAKGAYSFYIVRQIDANQGGNQRITAFIYKKDAKKRIVQSPDVIPADSEAGRAALAAGGEAAKKVEIPGVATTASPSSEVGRFFETQSSKGGRYTVTLPDGTKVEELNKATAAMMVPFDSIKFSGNYGNMTEVSYQVAKRAAKKGAKYYHITRQWQERGNNLTVSADLYKLEHHHHHH	not soluble
GPGSMTAGAPTTVAGEYPRPSASLHPSVDCSSLNRVPTATAAAPPPPSPRLSGYVMPSVVNPYSQGASQQPAMAHVSEPVNPASYLQQANAMGRWSYQQPPLQQPQYPTLDPVATRVAAIDAEEAAMAAEEMTMRAKLAELQVARKQQEEEQLYLSHGWAQMLEKEERYYTEPVIDLRPDIMAREQQCAMLHNHLQQVEAQAQHAQSQLQGTEYILRDAESFEQERRRVQDAFQEVERRRRECVARAERYFDVEAKRVVEGNKVIRKLDSQLREMTQRGPLAQLQDGNRHPFHRS	not soluble
MIVDFYFDFLSPFSYLANQRLSKLAQDYGLTIRYNAIDLARVKIAIGNVGPSNRDLKVKLDYLKVDLQRWAQLYGIPLVFPANYNSRRMNIGFYYSGAEAQAAAYVNVVFNAVWGEGIAPDLESLPALVSEKLGWDRSAFEHFLSSNAATERYDEQTHAAIERKVFGVPTMFLGDEMWWGNDRLFMLESAMGRLCRQNADLSS	soluble
MTDHTMKKNPVSIPHTVWYADDIRRGEREAADVLGLTLYELMLRAGEAAFQVCRSAYPDARHWLVLCGHGNNGGDGYVVARLAKAVGIEVTLLAQESDKPLPEEAALAREAWLNAGGEIHASNIVWPESVDLIVDALLGTGLRQAPRESISQLIDHANSHPAPIVAVDIPSGLLAETGATPGAVINADHTITFIALKPGLLTGKARDVTGQLHFDSLGLDSWLAGQETKIQRFSAEQLSHWLKPRRPTSHKGDHGRLVIIGGDHGTAGAIRMTGEAALRAGAGLVRVLTRSENIAPLLTARPELMVHELTMDSLTESLEWADVVVIGPGLGQQEWGKKALQKVENFRKPMLWDADALNLLAINPDKRHNRVITPHPGEAARLLGCSVAEIESDRLHCAKRLVQRYGGVAVLKGAGTVVAAHPDALGIIDAGNAGMASGGMGDVLSGIIGALLGQKLSPYDAACAGCVAHGAAADVLAARFGTRGMLATDLFSTLQRIVNPEVTDKNHDESSNSAP	soluble
MSYGLIIVLMIILGIGLWHTKKYHRAVVNQVAHVWITKNAFEHTALGMAIVSPDCRFLKVNRAYGEITGYTRPELLKMAVKELTHPEDQEKDTPYLQEVFAGNIHSFTTVKRYIHKNGSTIWVRSTISAVRTERGNLKYFVLEHHHHHH	not soluble
MAHHHHHHMKIRTVLRKRIRLHGTNCPGFTCHHNRFSRLLKTWVVVLPPKQLAVYKNGVQLLLQLVTEHLTGDGDVLLQLRYQHMIAKEMLSGRHNTASFRVTYGFLTFDGVNPKVCAMNLLCGNPLIVKHSACLQCTHPSFVRVLNFCVTLKKRRTIVSKPQGRPTKKQLKVAPQHR	not soluble
MSHPWRSRGEKRTIMFGYTPSDTILKYLKDMRDLINRAILNAYSIARSNDDSLPSPITLRRSLKDYYDNNVAYAKHHINPVCRTAIAMLRSYKKNNGRLKVVKAKRLAMRIDSELAKIEDNRLRITIRPNVYEYVDIVDRNKKYSEYSKYPISEVLLTDNRVYITFITGSDDKPVIANNIIGFDLNFKSVDYTVIKDNRIAYVDSIDTYDIAKTQRDYERKRRKIQKHIRNPAKRIRKLKEAKHRQRNIVRDKLQKLTTNIVKNNEDKTFVFEDLTNIKKKGKKHKDHKRDGQSSKRFRTDINRWPYRLFQMFVEYKSKNETLYVDPEGTSSECPVCGGILEHPIWKMSKCDNCGATFDRDRLSSLSIAVRGLHLCGTPFSVSGSASWDSMKDNYLYRLEHHHHHH	soluble
MWSEKHKSGKVNFVERYKHPYTGKWCRASVLMEKDTPRIRKEAQKYLDEKISEILTSLTTTDAYLLDVMNEWWEHHQKSLKSTSVRSLDFRIRELRNLIDPEVMIAKITTKYLQSIIDKIPGSYDKRKRARQLLKQTFDYAIALEYVSINPVISTQLAKPVKTIKDFEDVAQKFLEKDELKRLLDEMYRRKGSIKMAYLAEFMSLNGCRIGEALAIQPDNIKNDIIEIHGTLDYTSNGYRNAIKTTPKTNSSWRETLITKREKEIIQDILKINALEKNTNPNYKDMGYIFISRNGVPIQDNALNTSIRAANKRLEKPIQKELTSHIFRHTLVSRLAENKVPLKTIMDRVGHADSKTTQQIYTHVTKSMKNEVVDILNRL	not soluble
MANELATEGASGVDAPRIGPRLKAARQAQRLTLDDLAASCGITKGYLSKIERDHASASVATLVRICAALNIPVGSLFESSAAGEVVRADNYPPISFGGERMAEFLLTPFGERRIQSLLSRIEPGGGSGSETYELPVDVAFVYVVSGRICISFNGPGAGEDVSLATGDAFTFSPQLPHSFRALGDDTATVLWILTPALPDDVRPTSR	not soluble
MGSDKIHHHHHHMSKWLNVGKIVNTHGVRGEVRVLSTTDFEDDRFSSGKTLYVMRPNQNERVAVTVASHRKHKNFDLLCFEGYPSINDVEAFKGGRLQVPIEDRPELGEGEFFYHEIIGCSVVTIAGEELGKVKEILSPGANDVWVVQCRRGGKDLLIPYIEQVVKQVDLEKQQITIEPMEGLLE	not soluble
MSLATKDPTAVERANLLNMAKLSIKGLIESALSFGRTLDSDYPPLQQFFVVMEHCLKHGLKGRKSFLSYNKTIWGPLELVEKLYPEAEEIGASVRDLPGLKTPLGRARAWLRLALMQKKMADYLRCLIIQRELLSEFYEYHALMMEEEGAVIVGLLVGLNVIDANLCVKGEDLDSQVGVIDFSMYLKNEEEIGNKERNVQIAAILDQKNYVEELNRQLNSTVSSLHSRVDSLEKSNTKLIEELAIAKNNIIKLQEENHQLRSENELILMRTRQHLEVTKVDVETELQTYKHSRQGLDEMYNDARRQLRDESQLRQDVENELSVQVGMKHEMELAMKLLEKDIHEKQDTLIGLRQQLEEVKAINIEMYQRLQGSEDGLKEKNEIIARLEEKTNKITTAMRQLEQRLQQAEKAQKEAEAEDEKYAQECLSQSDSLQRQISQKEQQLVQLETDLKIEKEWRQTLQEDLQKEKDVLSHLRHETQKVISLKKEFLNLQDENQQLKRIYQEQEQALQELGSKLCESKLKIDDIKEANKALQGLVWLKDKDATHCKLCEKEFSLSKRKHHCRNCGEIFCNACSDNELPLPSSPKPVRVCDSCHAMLIQRCSSNMPEGHHHHHH	not soluble
